Measured values as given in US20100113557A1 (ST MARIANNA UNIVERSITY SCHOOL OF MEDICINE, published 2010).

Target: T1, HERC2 (hect domain and RCC-like domain 2) (human, UniProt O95714 1-4834)
T1 construct: Endogenous protein of 293T or HeLa cells, found in BRCA1 immune precipitates from cell lysates; also called endogenous HERC2
Assay: immunoprecipitation with anti-BRCA1 antibody, synchronized HeLa cells
Experimental: For the immunoprecipitation of a BRCA1 complex, the cell lysate was allowed to react with an anti-BRCA1 antibody at 4° C. for 1 hour. Thereafter, a precipitation reaction was carried out at 4° C. for 1 hour using Protein A and G sepharose (Invitrogen). The precipitate was washed with a 0.5% NP-40 buffer 3 times, and it was then re-suspended in an SDS sample buffer (50 mM Tris-HCl (pH6.8), 0.2% bromophenol blue, 10% glycerol, 2% SDS, and 100 mM DTT). The suspension was boiled for 3 minutes. As a peptide competition control, an equal amount of blocking peptide was added.

T1 sequence (O95714 other isoform, or with tags, fused parts or gaps limits assumed): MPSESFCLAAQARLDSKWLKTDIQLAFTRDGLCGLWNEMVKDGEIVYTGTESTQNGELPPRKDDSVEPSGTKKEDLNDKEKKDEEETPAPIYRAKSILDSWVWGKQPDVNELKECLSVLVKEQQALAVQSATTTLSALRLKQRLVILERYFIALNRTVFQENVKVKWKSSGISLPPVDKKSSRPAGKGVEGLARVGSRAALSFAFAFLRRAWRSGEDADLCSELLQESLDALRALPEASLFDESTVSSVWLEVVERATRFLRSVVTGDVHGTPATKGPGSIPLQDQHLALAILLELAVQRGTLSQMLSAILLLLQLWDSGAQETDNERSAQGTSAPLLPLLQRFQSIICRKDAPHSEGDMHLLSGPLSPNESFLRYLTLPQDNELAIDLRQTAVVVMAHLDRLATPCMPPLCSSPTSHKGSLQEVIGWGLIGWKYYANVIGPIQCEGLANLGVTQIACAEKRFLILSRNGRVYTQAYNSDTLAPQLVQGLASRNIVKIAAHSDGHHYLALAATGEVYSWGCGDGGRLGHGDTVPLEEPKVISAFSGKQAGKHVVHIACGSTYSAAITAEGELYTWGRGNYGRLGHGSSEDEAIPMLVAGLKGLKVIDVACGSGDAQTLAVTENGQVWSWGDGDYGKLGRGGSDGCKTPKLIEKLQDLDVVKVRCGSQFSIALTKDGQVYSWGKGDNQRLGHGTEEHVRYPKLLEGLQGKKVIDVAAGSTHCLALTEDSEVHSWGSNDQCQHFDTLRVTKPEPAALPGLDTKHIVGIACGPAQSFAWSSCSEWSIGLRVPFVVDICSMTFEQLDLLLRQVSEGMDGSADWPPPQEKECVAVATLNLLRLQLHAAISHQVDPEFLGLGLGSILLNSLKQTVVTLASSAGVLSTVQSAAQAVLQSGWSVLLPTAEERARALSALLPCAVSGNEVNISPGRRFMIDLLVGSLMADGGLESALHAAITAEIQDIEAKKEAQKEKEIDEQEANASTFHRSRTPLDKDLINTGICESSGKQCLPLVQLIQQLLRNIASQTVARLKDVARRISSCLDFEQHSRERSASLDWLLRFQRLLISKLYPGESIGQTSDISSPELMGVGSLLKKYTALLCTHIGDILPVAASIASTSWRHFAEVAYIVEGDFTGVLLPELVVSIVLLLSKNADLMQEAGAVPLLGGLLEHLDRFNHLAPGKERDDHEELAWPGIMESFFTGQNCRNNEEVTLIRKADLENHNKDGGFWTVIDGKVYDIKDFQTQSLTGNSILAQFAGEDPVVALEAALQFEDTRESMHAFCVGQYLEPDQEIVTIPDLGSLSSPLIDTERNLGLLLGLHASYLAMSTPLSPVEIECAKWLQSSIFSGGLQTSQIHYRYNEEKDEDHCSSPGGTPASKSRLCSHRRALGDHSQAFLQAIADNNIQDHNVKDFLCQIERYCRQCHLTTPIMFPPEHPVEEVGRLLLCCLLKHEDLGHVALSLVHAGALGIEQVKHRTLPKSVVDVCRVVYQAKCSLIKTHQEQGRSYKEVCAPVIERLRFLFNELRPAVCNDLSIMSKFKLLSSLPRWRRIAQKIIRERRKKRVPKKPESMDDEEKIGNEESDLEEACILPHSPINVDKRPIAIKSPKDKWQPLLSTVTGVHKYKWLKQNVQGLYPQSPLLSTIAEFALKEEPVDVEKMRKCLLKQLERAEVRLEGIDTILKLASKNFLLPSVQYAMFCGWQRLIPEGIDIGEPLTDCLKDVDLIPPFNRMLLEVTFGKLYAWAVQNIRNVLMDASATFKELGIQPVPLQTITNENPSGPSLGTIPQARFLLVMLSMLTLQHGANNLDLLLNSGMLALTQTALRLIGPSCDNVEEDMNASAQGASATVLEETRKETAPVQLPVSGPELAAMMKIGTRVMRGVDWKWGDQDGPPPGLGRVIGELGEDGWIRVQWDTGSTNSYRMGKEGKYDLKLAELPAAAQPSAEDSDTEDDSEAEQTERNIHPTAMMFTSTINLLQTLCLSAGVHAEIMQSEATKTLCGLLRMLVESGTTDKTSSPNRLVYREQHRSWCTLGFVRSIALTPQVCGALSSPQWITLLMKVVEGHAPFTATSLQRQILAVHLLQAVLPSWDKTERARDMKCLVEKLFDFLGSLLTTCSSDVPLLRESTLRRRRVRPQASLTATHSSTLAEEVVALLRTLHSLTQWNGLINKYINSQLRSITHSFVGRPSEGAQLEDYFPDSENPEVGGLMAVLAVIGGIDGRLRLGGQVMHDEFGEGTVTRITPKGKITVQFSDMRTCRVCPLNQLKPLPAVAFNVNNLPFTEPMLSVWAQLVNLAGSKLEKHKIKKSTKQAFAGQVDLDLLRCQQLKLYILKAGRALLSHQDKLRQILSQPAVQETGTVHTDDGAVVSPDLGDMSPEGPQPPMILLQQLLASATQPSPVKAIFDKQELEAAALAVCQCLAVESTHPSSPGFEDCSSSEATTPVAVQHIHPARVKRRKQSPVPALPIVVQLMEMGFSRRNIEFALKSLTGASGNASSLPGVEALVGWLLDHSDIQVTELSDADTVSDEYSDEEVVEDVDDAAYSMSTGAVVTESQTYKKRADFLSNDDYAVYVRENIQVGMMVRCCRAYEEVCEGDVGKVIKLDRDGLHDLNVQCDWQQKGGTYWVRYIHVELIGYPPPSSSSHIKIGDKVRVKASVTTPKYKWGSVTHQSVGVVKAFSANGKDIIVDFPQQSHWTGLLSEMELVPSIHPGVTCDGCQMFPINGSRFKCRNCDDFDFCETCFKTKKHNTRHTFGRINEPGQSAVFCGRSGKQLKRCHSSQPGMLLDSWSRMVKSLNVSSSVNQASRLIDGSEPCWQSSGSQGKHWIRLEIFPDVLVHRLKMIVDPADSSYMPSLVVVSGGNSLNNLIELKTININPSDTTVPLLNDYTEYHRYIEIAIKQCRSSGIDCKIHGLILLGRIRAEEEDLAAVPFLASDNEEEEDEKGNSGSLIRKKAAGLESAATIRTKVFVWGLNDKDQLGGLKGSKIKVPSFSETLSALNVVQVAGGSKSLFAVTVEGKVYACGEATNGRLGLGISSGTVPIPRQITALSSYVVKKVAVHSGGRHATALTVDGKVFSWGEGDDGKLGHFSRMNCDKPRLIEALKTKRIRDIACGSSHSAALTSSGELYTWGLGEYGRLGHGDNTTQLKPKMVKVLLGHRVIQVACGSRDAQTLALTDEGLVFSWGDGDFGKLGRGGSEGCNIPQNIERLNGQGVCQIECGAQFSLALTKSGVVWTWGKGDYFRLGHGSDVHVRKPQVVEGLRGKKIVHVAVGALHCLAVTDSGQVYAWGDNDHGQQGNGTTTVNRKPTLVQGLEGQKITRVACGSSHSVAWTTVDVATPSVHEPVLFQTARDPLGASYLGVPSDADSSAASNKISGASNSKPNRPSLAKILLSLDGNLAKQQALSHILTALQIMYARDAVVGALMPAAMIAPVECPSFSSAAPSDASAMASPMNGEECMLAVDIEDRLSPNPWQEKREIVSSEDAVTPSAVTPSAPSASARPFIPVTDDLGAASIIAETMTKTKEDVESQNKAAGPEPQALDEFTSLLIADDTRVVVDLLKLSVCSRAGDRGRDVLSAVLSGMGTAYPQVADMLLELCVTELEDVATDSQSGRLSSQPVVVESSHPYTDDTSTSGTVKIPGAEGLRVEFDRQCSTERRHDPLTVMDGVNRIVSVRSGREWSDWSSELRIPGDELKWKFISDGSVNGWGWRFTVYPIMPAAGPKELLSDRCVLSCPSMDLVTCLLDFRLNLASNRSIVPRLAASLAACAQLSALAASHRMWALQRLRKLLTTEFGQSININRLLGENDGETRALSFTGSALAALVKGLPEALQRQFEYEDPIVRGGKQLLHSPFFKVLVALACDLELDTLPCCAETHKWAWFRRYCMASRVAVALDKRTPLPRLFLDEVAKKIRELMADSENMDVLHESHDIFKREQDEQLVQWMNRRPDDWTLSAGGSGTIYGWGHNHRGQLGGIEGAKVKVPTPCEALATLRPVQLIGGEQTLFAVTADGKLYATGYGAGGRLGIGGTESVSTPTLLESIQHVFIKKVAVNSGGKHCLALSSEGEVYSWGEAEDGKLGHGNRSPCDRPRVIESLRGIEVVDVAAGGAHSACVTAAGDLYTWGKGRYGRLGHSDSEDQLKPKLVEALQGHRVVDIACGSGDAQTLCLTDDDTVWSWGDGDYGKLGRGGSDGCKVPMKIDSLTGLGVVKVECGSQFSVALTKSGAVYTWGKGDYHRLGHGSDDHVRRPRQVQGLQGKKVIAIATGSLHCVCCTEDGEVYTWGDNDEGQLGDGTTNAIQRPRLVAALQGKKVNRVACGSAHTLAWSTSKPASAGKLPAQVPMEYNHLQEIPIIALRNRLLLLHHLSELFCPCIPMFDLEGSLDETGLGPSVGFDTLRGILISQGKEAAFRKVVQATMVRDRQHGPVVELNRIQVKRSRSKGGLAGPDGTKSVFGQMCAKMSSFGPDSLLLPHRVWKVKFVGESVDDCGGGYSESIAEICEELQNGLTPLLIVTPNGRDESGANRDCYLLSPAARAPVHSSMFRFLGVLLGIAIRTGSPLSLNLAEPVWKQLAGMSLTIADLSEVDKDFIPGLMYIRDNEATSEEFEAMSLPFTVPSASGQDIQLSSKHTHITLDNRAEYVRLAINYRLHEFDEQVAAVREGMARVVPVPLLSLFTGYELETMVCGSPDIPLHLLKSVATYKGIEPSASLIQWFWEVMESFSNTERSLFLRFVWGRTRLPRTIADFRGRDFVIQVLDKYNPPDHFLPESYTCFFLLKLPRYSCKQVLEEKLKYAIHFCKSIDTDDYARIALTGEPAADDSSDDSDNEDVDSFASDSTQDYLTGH

B1: BRCA1 (endogenous) (other, UniProt P38398 1-1863, looked up)
chain: MDLSALRVEEVQNVINAMQKILECPICLELIKEPVSTKCDHIFCKFCMLKLLNQKKGPSQCPLCKNDITKRSLQESTRFSQLVEELLKIICAFQLDTGLEYANSYNFAKKENNSPEHLKDEVSIIQSMGYRNRAKRLLQSEPENPSLQETSLSVQLSNLGTVRTLRTKQRIQPQKTSVYIELGSDSSEDTVNKATYCSVGDQELLQITPQGTRDEISLDSAKKAACEFSETDVTNTEHHQPSNNDLNTTEKRAAERHPEKYQGSSVSNLHVEPCGTNTHASSLQHENSSLLLTKDRMNVEKAEFCNKSKQPGLARSQHNRWAGSKETCNDRRTPSTEKKVDLNADPLCERKEWNKQKLPCSENPRDTEDVPWITLNSSIQKVNEWFSRSDELLGSDDSHDGESESNAKVADVLDVLNEVDEYSGSSEKIDLLASDPHEALICKSERVHSKSVESNIEDKIFGKTYRKKASLPNLSHVTENLIIGAFVTEPQIIQERPLTNKLKRKRRPTSGLHPEDFIKKADLAVQKTPEMINQGTNQTEQNGQVMNITNSGHENKTKGDSIQNEKNPNPIESLEKESAFKTKAEPISSSISNMELELNIHNSKAPKKNRLRRKSSTRHIHALELVVSRNLSPPNCTELQIDSCSSSEEIKKKKYNQMPVRHSRNLQLMEGKEPATGAKKSNKPNEQTSKRHDSDTFPELKLTNAPGSFTKCSNTSELKEFVNPSLPREEKEEKLETVKVSNNAEDPKDLMLSGERVLQTERSVESSSISLVPGTDYGTQESISLLEVSTLGKAKTEPNKCVSQCAAFENPKGLIHGCSKDNRNDTEGFKYPLGHEVNHSRETSIEMEESELDAQYLQNTFKVSKRQSFAPFSNPGNAEEECATFSAHSGSLKKQSPKVTFECEQKEENQGKNESNIKPVQTVNITAGFPVVGQKDKPVDNAKCSIKGGSRFCLSSQFRGNETGLITPNKHGLLQNPYRIPPLFPIKSFVKTKCKKNLLEENFEEHSMSPEREMGNENIPSTVSTISRNNIRENVFKEASSSNINEVGSSTNEVGSSINEIGSSDENIQAELGRNRGPKLNAMLRLGVLQPEVYKQSLPGSNCKHPEIKKQEYEEVVQTVNTDFSPYLISDNLEQPMGSSHASQVCSETPDDLLDDGEIKEDTSFAENDIKESSAVFSKSVQKGELSRSPSPFTHTHLAQGYRRGAKKLESSEENLSSEDEELPCFQHLLFGKVNNIPSQSTRHSTVATECLSKNTEENLLSLKNSLNDCSNQVILAKASQEHHLSEETKCSASLFSSQCSELEDLTANTNTQDPFLIGSSKQMRHQSESQGVGLSDKELVSDDEERGTGLEENNQEEQSMDSNLGEAASGCESETSVSEDCSGLSSQSDILTTQQRDTMQHNLIKLQQEMAELEAVLEQHGSQPSNSYPSIISDSSALEDLRNPEQSTSEKAVLTSQKSSEYPISQNPEGLSADKFEVSADSSTSKNKEPGVERSSPSKCPSLDDRWYMHSCSGSLQNRNYPSQEELIKVVDVEEQQLEESGPHDLTETSYLPRQDLEGTPYLESGISLFSDDPESDPSEDRAPESARVGNIPSSTSALKVPQLKVAESAQSPAAAHTTDTAGYNAMEESVSREKPELTASTERVNKRMSMVVSGLTPEEFMLVYKFARKHHITLTNLITEETTHVVMKTDAEFVCERTLKYFLGIAGGKWVVSYFWVTQSIKERKMLNEHDFEVRGDVVNGRNHQGPKRARESQDRKIFRGLEICCYGPFTNMPTDQLEWMVQLCGASVVKELSSFTLGTGVHPIVVVQPDAWTEDNGFHAIGQMCEAPVVTREWVLDSVALYQCQELDTYLIPQIPHSHY
notes: Endogenous protein, precipitated from cell lysate with an anti-BRCA1 antibody; also called endogenous BRCA1
binding result: binds
